This assay has as its target T1, human TIM-3 coupled to human Fc (human, UniProt Q8TDQ0 22-200, limits assumed).
T1 construct: Antigen coated on ELISA plates and immobilised on the SPR chip; not shown: human Fc
Put plainly: ELISA on plate-coated human TIM-3 coupled to human Fc. (An ELISA detects its analyte on a solid surface through an enzyme-linked reagent.)

B1: anti-TIM-3 antibody clone B10 (antibody, V domains shown)
VH: QVQLQESGPGLVKASETLSLTCTVSGGSIGSSDYYWGWIRQPPGKGLEWIGSIYYSGSTYYNPSLKSRVTMSVDTPNNQFSLKLSSVTAADTAVYYCARGEHRGEFDYWGQGTLVTVSS
VL: EIVLTQSPATLSFSPGERATLSCRASQSVGSYLAWYQQRPGQAPRPLIYDATNRATGIPTRFSGSGSGTDFTLTISSLEPEDFATYYCQHRRTFGRGTKLEIK
notes: ELISA and SPR are described for Fab; The format in each assay is not clearly stated
Take B1: the binding result is “binds”.

B2: anti-TIM-3 antibody clone A11 (antibody, V domains shown)
VH: QVQLQQWGAGLLKPSETLSLTCAVYGGSFSGYYWSWIRQPPGKGLEWIGEINHSGSTNYNPSLKSRVTISVDTSKNQFSLKLSSVTAADTAVYYCARGYVAGFDYWGQGTLVTVSS
VL: QSVVTQPPSVSAAPGQKVTISCSGSSSNIGNNYVSWYQQLPGTAPKLLIYGNNWRPSGIPDRFSGSKSGTSATLAISGLQTGDEADYYCETWDSSLSAGVFGGGTKLTVL
notes: as for B1
On to B2, for which the binding result is “binds”.

B3: anti-TIM-3 antibody clone A3 (antibody, V domains shown)
VH: QVQLVQSGAEVKKPGASVKVSCKASGYTFTSYYMHWVRQAPGQGLEWMGIINPSGGSTSYAQKFQGRVTMTRDTSTSTVYMELSSLRSEDTAVYYCARSPGVVTALFDYWGQGTLVTVSS
VL: DIQMTQSPSFMSASVGDRVTITCRASQDIGSYLAWYQQKPGKAPKLLIYAASTLQSGVPSRFSGSGSGTDFTLTINSLQPEDFATYYCQQSYSSPPTFGPGTTLEIK
notes: From a human phage display library; ELISA screening used Fab-containing supernatants and SPR speaks of 'each candidate Fab'; The format in each assay is not clearly stated
In the case of B3, the binding result was “binds”.

B4: anti-TIM-3 antibody clone G7 (antibody, V domains shown)
VH: EVQLVQSGAEVKKPGASVKVSCKASGYTFTSYYMHWVRQAPGQGLEWMGIINPSGGSTSYAQKFQGRVTMTRDTSTSTVYMELSSLRSEDTAVYYCARDQYSSGWYYYGMDVWGQGTTVTVSS
VL: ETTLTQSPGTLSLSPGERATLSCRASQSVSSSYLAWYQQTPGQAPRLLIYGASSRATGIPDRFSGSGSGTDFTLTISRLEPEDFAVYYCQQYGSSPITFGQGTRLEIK
notes: as for B1
Consider B4, for which the binding result is listed as “binds”.

B5: anti-TIM-3 antibody clone G9 (antibody, V domains shown)
VH: QVQLQQSGAEVKKPGASVKVSCKASGYTFTSYYMHWVRQAPGQGLEWMGIINPSGGSTSYAQKFQGRVTMTRDTSTSTVYMELSSLRSEDTAVYYCARDLYSYGFYYYGMDVWGQGTTVTVSS
VL: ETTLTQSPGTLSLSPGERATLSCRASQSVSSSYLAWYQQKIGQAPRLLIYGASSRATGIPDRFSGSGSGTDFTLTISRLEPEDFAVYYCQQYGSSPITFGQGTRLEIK
notes: as for B1
Turning to B5, the binding result is on record as “binds”.

B6: anti-TIM-3 antibody clone G6 (antibody, V domains shown)
VH: QVQLQESGPGLVKPSGTLSLTCAVSGGSISSSNWWSWVRQPPGKGLEWIGEIYHSGSTNYNPSLKSRVTISVDKSKNQFSLKLSSVTAADTAVYYCARVVAVAGTVDYWGQGTLVTVSS
VL: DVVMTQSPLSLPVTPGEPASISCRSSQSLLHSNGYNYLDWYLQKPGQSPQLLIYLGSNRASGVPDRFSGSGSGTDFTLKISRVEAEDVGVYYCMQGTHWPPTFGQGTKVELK
notes: as for B1
Turning to B6, the binding result is “binds”.

The record behind these values is US20170240633A1 (published 2017).
